Test results reported in the supplement of paper PMC9170038.

Test system: MS2 coat protein
Assay: apparent KD of MS2 coat protein; designed switch direction (-1 OFF switch, 1 ON switch): -1; higher = weaker reporter binding
Outline: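 For each design, the apparent KD is the median over clusters of curves fitted to normalised cluster fluorescence. Clusters held RNA switches with common flanks, transcribed on Illumina chips by stalled E. coli RNA polymerase. These were titrated with SNAP-549-labelled MS2 coat protein, doubling from 0.7 or 1.5 nM to 3 µM, without input, with 200 uM small-molecule ligand, or with an oligonucleotide input.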

[1] = Eterna round: R95, input ligand: microRNA oligo, concentration not stated
[2] = input ligand: microRNA oligo, concentration not stated

Sequence	apparent KD of MS2 coat protein [1] [nM]	apparent KD of MS2 coat protein (input ligand: FMN 200 uM) [nM]	apparent KD of MS2 coat protein (input ligand: none) [nM]	apparent KD of MS2 coat protein [2] [nM]
AGCAUGUAAGGAUAUGCAACACGACGUUCAAUCGUCGUGCCGCAGAAGGUACAUGAGGAUCACCCAUGUGCUCC [Xesodied] (puzzle: Exclusion 4)	75.4			
AGCAUGUAAGGAUAUGUAACGCGGCGUUCAUUCGUCGUCCCACAGAAGGUACAUGAGGAUCACCCAUGUGCUCC [Veorla] (puzzle: Exclusion 4)	39			
AGCCAAGCAGGAUAUAUCCGGGAUAACAUGAGGAUCACCCAUGUGACCGAUUGAUGUCCUAUAGAAGGGCUUGGGA [Mod of ViennaUCT 22 - Jieux - Exclusion 5] (Eterna round: R97, puzzle: Exclusion 5)		176	43.5	
AGCCAAGCAGGAUAUGCCCGGGAUAACAUGAGGAUCACCCAUGUGACCGAUUGAUGUCCUGCAGAAGGGCUUGGGA [Erxesoan] (Eterna round: R96, puzzle: Exclusion 5)		82.4	16.9	11.4
AGCCAAGCAGGAUAUGCCCGGGAUAACAUGAGGAUCACCCAUGUGACCGAUUGAUGUCCUGCAGAAGGGCUUGGGA [Erxesoan] (puzzle: Exclusion 5)	15.8			
AGCCAAGCAGGAUAUGCCCGGGAUAACAUGAGGAUCACCCAUGUGACCGAUUGAUGUCCUGCAGAAGGGCUUGGGA [Mod of ViennaUCT - Jieux - Exclusion 5] (Eterna round: R97, puzzle: Exclusion 5)		83.2	17.9	
AGCCAUCGUGUGAGGAUAUCGAUAAGUUCGAGUUUCGAGAAGGCACAUGAGGAUCACCCAUGUCGUGAAAGAAA [BmEX4 A.28] (Eterna round: R97, puzzle: Brourd's mod of Exclusion 4)		75.8	244	
AGCCCGCAAGGAGGAUAUUAACAUGAGGAUCACCCAUGUAAUCACUAGAUAGCACGGGCGGUUCGUAAGAAGGUCUAGUGGAAU [Eternabot solution 24] (Eterna round: R96, puzzle: Exclusion NG 2)		35.4	33.1	22.3
AGCCCUAAUGUCAGGAUAUGCAUCCUUAAUGGACGGCAGAAGGGACAUGAGGAUCACCCAUGUAAAUAGAAAUU [Direised] (puzzle: Brourd's mod of Exclusion 4)	31.4			
AGCCCUGCAGGAUAUGCCCGGGAUAACAUGAGGAUCACCCAUGUGACUGAUUGUUAUCCUGCAGAAGGGCAUGGGA [JL-EX5-4.13 ViennaUCT mod] (Eterna round: R97, puzzle: Exclusion 5)		547	1000	
AGCCUAGCAGGAUAUGCCCGGGAUAACAUGAGGAUCACCCAUGUGACUGAUUGAUGUCUUGCAGAAGGGCUAGGGA [JL-EX5-4.03 ViennaUCT mod] (Eterna round: R97, puzzle: Exclusion 5)		211	26.1	
AGCCUCUAAGGAUAUACAUGAGGAUCACCCAUGUACUUAGAAGGGAAACCUUCUAUAUGUAGAAGGUAGAAGCA [Exclusion 3 S1] (Eterna round: R97, puzzle: Exclusion 3)		16	12.7	
AGCGAAUGAGGAUAUUAUCUCACCUACAUGAGGAUCACCCAUGUGGUCGCACCUGGCGAGUGAGAAGGCAUUCGGA [Eternabot (Original) Solution 41] (Eterna round: R97, puzzle: Exclusion 5)		112	49.8	
AGCGAGGCAGGAUAUACAUGAGGAUCACCCAUGUACUUGUAUGGCGUGGAACAUCGUGGUAGAAGGGCCGUGCC [EX3 #80] (Eterna round: R97, puzzle: Exclusion 3)		92.7	68.9	
AGCGCGUUCUAGGAUAUCCGGUGGGACACAUACGGAGAAGGAGAAACAUGAGGAUCACCCAUGUAUGGAGAUCG [Eternabot (L1) Solution 7] (Eterna round: R97, puzzle: Exclusion 6)		309	102	
AGCGGCCGAGGAUAUACAAUCCUCCUGGCAGCCUGUCUGCCACAUGAGGAUCACCCAUGUAGAAGGCGGACCGC [Xelezabi] (puzzle: Exclusion 2)	128			
AGCGGGUUAGGAUAUACCUGGGUAUGAAAAGCCUAACCUCGACAUGAGGAUCACCCAUGUAGAAGGAGCUCGGC [Eternabot (Original) Solution 3] (Eterna round: R97, puzzle: Exclusion 2)		91	36.9	
AGCGUGGAGACAGGAUAUGAGAAUAGAUAGAACUCAGAAGGGUCACAUGAGGAUCACCCAUGUAAAGUCUUGAGGCUGAGUGGU [Prohibition 6 - Jieux - Exclusion NG 1] (Eterna round: R96, puzzle: Exclusion NG 1)		153	45.2	36.4
